From paper PMC8642242

target: SARS-CoV-2 stabilized S trimer (HexaPro) (SARS-CoV-2)

Substance	IC50 of neutralization of SARS-CoV-2 (IL1/2020) pseudovirus (pSV assay) [ng ml^−1]
WRAIR-2123 (human IgG1) (antibody)	4
WRAIR-2165 (human IgG1) (antibody)	10
WRAIR-2173 (human IgG1) (antibody)	4
